The values below come from patent US20060140946A1 (published 2006).

The target of this assay is human tumor necrosis factor-alpha (hTNFα) (human, UniProt P01375 77-233). Description: cell-based or functional assay.
human tumor necrosis factor-alpha (hTNFα), sequence (P01375 77-233): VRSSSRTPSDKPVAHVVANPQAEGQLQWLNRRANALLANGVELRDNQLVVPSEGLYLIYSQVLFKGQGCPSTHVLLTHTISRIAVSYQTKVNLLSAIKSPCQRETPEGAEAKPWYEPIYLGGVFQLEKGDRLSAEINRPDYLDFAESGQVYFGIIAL

B1: p55-sf2 TNF receptor/IgG1 fusion protein (Fc fusion)
chain: QVCPQGKYIHPQNNSICCTKCHKGTYLYNDCPGPGQDTDCRECESGSFTASENHLRHCLSCSKCRKEMGQVEISSCTVDRDTVCGCRKNQYRHYWSENLFQCFNCSLCLNGTVHLSCQEKQNTVCTCHAGFFLRENECVSCSNCKKSLECTKLCLPQIPGTLVTVSS
In the case of B1, the “IC50: concentration of fusion protein required to inhibit 2 ng/ml (39.2 pM) TNFα by 50%, WEHI 164 cytotoxicity assay” value amounted to 70 pM.

B2: p75P-sf2 TNF receptor/IgG1 fusion protein (Fc fusion)
chain: QLPAQVAFTPYAPEPGSTCRLREYYDQTAQMCCSKCSPGQHAKVFCTKTSDTVCDSCEDSTYTQLWNWVPECLSCGSRCSSDQVETQACTREQNRICTCRPGWYCALSKQEGCRLCAPLRKCRPGFGVARPGTETSDVVCKPCAPGTFSNTTSSTDICRPHQICNVVAIPGNASMDAVCTSTSGTLVTVSS
Take B2: the “IC50: concentration of fusion protein required to inhibit 2 ng/ml (39.2 pM) TNFα by 50%, WEHI 164 cytotoxicity assay” value is 70 pM.
